Results published in patent US12466878 (IMMATICS BIOTECHNOLOGIES, dated 2025).

Biological target: T1, HLA-A*02:01 (human)
T1 construct: the format of the assay is not described
Experiment: ELISA-based peptide-MHC binding assay (FIG. 5)

binding result: binds
Binder: KIQEILTQV [IGF2BP3-001 peptide KIQEILTQV (SEQ ID NO: 1)]
